Our source for the SPOT signal as a fraction of Bim BH3's signal on the same receptor and array and Kd values is PMC4072508, “Genome-Wide Prediction and Validation of Peptides That Bind Human Prosurvival Bcl-2 Proteins” (PLoS Computational Biology, 2014).

As usually defined, the Kd is the constant that tells how readily two partners part at equilibrium. Lower therefore signals a tighter complex.

The target in test [1] is T1, Bfl-1, Q16548.
T1 chain: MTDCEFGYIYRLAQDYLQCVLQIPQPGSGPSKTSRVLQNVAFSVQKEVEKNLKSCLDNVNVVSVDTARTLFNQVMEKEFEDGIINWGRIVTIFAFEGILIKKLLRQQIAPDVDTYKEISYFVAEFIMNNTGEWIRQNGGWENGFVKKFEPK
The test is described as follows: peptide SPOT array, c-Myc-tagged receptor at 1 uM or 100 nM, anti-c-Myc-Cy3.

Test [2] deals with Bcl-xL, Q07817. The test is described as above.
In test [3] the target is T2, Mcl-1, Q07820.
T2 chain: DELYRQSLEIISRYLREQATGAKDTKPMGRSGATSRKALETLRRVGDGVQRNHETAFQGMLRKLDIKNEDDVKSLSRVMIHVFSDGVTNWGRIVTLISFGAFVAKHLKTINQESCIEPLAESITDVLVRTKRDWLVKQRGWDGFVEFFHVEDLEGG
The test is described as above.

The target in test [4] is T3, Bcl-w, Q92843.
T3 chain: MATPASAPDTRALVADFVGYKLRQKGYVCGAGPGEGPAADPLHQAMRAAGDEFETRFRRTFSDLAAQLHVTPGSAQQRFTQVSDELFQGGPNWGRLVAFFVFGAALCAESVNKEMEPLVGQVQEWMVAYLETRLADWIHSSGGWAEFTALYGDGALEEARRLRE
The test is described as follows: fluorescence polarisation, direct titration of receptor into 10 nM labelled peptide.

For test [5], the target named is T1, Bfl-1, Q16548. The test is described as above.
Test [6] addresses T4, Bcl-2, P10415.
T4 chain: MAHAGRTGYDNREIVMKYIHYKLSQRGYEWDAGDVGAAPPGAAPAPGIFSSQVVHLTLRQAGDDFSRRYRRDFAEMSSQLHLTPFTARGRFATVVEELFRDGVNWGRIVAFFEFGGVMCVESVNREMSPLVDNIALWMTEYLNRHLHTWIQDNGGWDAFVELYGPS
The description is as above.

Test [7] concerns the target Bcl-xL, Q07817. The description is as above.
In test [8] the target is T2, Mcl-1, Q07820. Described as above.
Test [9] has as its target T3, Bcl-w, Q92843. The test is described as follows: peptide SPOT array, c-Myc-tagged receptor at 1 uM or 100 nM, anti-c-Myc-Cy3.
In test [10] the target is Bcl-2, P10415. The test is described as above.
Target sequence in this assay (P10415 1-217): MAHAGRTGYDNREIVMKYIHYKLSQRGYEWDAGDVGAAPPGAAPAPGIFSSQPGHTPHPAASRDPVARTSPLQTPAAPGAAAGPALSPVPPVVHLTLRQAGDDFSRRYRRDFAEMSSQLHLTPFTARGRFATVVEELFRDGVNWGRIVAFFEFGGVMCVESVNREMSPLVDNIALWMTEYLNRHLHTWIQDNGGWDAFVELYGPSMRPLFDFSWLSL

Bcl-xL, Q07817, sequence (Q07817 1-209): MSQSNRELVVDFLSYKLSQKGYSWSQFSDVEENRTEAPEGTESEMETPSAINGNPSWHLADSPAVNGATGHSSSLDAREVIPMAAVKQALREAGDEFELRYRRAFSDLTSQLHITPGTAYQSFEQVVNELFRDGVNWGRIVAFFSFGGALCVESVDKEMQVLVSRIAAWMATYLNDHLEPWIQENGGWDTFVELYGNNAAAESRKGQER

For TVATRRLSGFLRTLADRLEGTKELLS [MINA], the SPOT signal as a fraction of Bim BH3's signal on the same receptor and array was 0.32 with Bfl-1, Q16548 [1]; 0.91 with Bcl-xL, Q07817 [2]; 0.36 with Mcl-1, Q07820 [3]. The Kd is 1230 nM in the test with Bcl-w, Q92843 [4]; 1130 nM with Bfl-1, Q16548 [5]; 266 nM with Bcl-2, P10415 [6]; 1010 nM in the test with Bcl-xL, Q07817 [7]; above 10000 nM with Mcl-1, Q07820 [8].

Consider FKAWGKFGGAFCRYADEMKEIQERQR [PURB], for which the SPOT signal as a fraction of Bim BH3's signal on the same receptor and array in the test with Bfl-1, Q16548 [1] stood at 1.05; with Bcl-xL, Q07817 [2], 1.83; with Mcl-1, Q07820 [3], 1.16. Further, the equilibrium dissociation constant (Kd) in the test with Bcl-w, Q92843 [4] is above 1800 nM; with Bfl-1, Q16548 [5], above 4660 nM; in the test with Bcl-2, P10415 [6] it was 34 nM; with Bcl-xL, Q07817 [7], above 100000 nM; with Mcl-1, Q07820 [8], above 4000 nM.

The molecule SWFIQSLCAMLKQYADKLEFMHILTR [CASP3] returned an SPOT signal as a fraction of Bim BH3's signal on the same receptor and array with Bfl-1, Q16548 [1] of 0.25. Also, the Kd came out at 64 nM in the test with Bcl-w, Q92843 [4]; 43 nM with Bfl-1, Q16548 [5]; 264 nM in the test with Bcl-2, P10415 [6].

Consider LRGSGAWGLLLRRVGDDVLVHLLARC [TERT], for which the SPOT signal as a fraction of Bim BH3's signal on the same receptor and array with Bcl-w, Q92843 [9] was 0.12; with Bfl-1, Q16548 [1], 0.19; with Bcl-2, P10415 [10], 0.03; in the test with Bcl-xL, Q07817 [2], 0.32; with Mcl-1, Q07820 [3], 0.14. Further, the dissociation constant Kd in the test with Bcl-w, Q92843 [4] came to 992 nM; with Bfl-1, Q16548 [5] it was 99 nM; with Bcl-2, P10415 [6], 49 nM; with Mcl-1, Q07820 [8], 69 nM.

As to FSKREKLVEILRNIGDERTMVFVETK [DDX4], the SPOT signal as a fraction of Bim BH3's signal on the same receptor and array with Bfl-1, Q16548 [1] was determined as 0.1; in the test with Bcl-xL, Q07817 [2], 0.14; with Mcl-1, Q07820 [3] it was 0.35. The Kd with Bcl-w, Q92843 [4] was above 4350 nM; in the test with Bfl-1, Q16548 [5], above 3370 nM; in the test with Bcl-2, P10415 [6] it was above 3040 nM; in the test with Bcl-xL, Q07817 [7], above 4000 nM; in the test with Mcl-1, Q07820 [8] it was 142 nM.

Turning to VDSIRPKCQELRHLCDQFSAEIARRR [MCF2L], the SPOT signal as a fraction of Bim BH3's signal on the same receptor and array with Bfl-1, Q16548 [1] stood at 0.21; in the test with Bcl-xL, Q07817 [2], 1.26; in the test with Mcl-1, Q07820 [3] it was 0.24. Moreover, the Kd in the test with Bcl-w, Q92843 [4] is 7 nM; with Bfl-1, Q16548 [5], above 4100 nM; with Bcl-2, P10415 [6] it was 6 nM; in the test with Bcl-xL, Q07817 [7], 4 nM; with Mcl-1, Q07820 [8], above 4000 nM.

For the molecule ISSYMVLAPVFGYLGDRYNRKYLMCG [SPNS1], the SPOT signal as a fraction of Bim BH3's signal on the same receptor and array with Bfl-1, Q16548 [1] was determined as 1.2; with Bcl-xL, Q07817 [2], 1.64; with Mcl-1, Q07820 [3], 1.15. The Kd was found to be 871 nM with Bcl-w, Q92843 [4]; 278 nM with Bfl-1, Q16548 [5]; 28 nM in the test with Bcl-2, P10415 [6]; 96 nM with Bcl-xL, Q07817 [7]; 19 nM in the test with Mcl-1, Q07820 [8].

Consider PEDLQDVGWFLHKLSQQILKKEKEKK [TLR5], for which the SPOT signal as a fraction of Bim BH3's signal on the same receptor and array in the test with Bcl-w, Q92843 [9] came out at 0.3; with Bfl-1, Q16548 [1] it was 0.25; in the test with Bcl-2, P10415 [10] it was 0.07; with Bcl-xL, Q07817 [2], 0.1; with Mcl-1, Q07820 [3], 0.3.

SVGGRGISSKLDSLADELKFVPIIGI [SACS]: the SPOT signal as a fraction of Bim BH3's signal on the same receptor and array with Bcl-w, Q92843 [9] is 0.02; with Bfl-1, Q16548 [1], 0.02; with Bcl-2, P10415 [10], 0.01; in the test with Bcl-xL, Q07817 [2], 0.03; with Mcl-1, Q07820 [3], 0.02.

Turning to DAIIQMIVELLKRVGDQWEEEQSLAS [c6orf222], the dissociation constant (Kd) was determined as 13 nM in the test with Bcl-w, Q92843 [4]; 1 nM in the test with Bfl-1, Q16548 [5]; 0.3 nM with Bcl-2, P10415 [6]; 23 nM with Mcl-1, Q07820 [8].

Molecule KIETTPESRYLAQIGDSVSLTCSTTG [VCAM1] registered an SPOT signal as a fraction of Bim BH3's signal on the same receptor and array in the test with Bfl-1, Q16548 [1] of 0.03. The Kd with Bcl-w, Q92843 [4] is above 4350 nM; with Bfl-1, Q16548 [5], above 3370 nM; in the test with Bcl-2, P10415 [6] it was above 3040 nM.

Turning to SKFVILSAHKLVFIGDTLSRQAKAAD [BCAR1], the SPOT signal as a fraction of Bim BH3's signal on the same receptor and array with Bcl-xL, Q07817 [2] turned out to be 0.1; with Mcl-1, Q07820 [3], 0.06. Moreover, the Kd came out at 3610 nM with Bcl-w, Q92843 [4]; 4680 nM in the test with Bfl-1, Q16548 [5]; 2990 nM in the test with Bcl-2, P10415 [6]; 2540 nM with Bcl-xL, Q07817 [7]; 912 nM with Mcl-1, Q07820 [8].

Consider ACGDSVLARMLRELGDSLRRPQLRLW [SLC19A1], for which the SPOT signal as a fraction of Bim BH3's signal on the same receptor and array with Bfl-1, Q16548 [1] is 0.38; with Bcl-xL, Q07817 [2], 1.21; with Mcl-1, Q07820 [3], 0.45. In addition, the dissociation constant (Kd) with Bfl-1, Q16548 [5] is 182 nM; in the test with Bcl-2, P10415 [6] it was 237 nM; with Bcl-xL, Q07817 [7], 1460 nM; with Mcl-1, Q07820 [8], 22 nM.

For the molecule TRRSMVFARHLREVGDEFRSRHLNST [POFUT2], the SPOT signal as a fraction of Bim BH3's signal on the same receptor and array with Bfl-1, Q16548 [1] was 0.75; in the test with Bcl-xL, Q07817 [2] it was 1.91; in the test with Mcl-1, Q07820 [3], 1.67. The Kd with Bcl-w, Q92843 [4] was 98 nM; with Bfl-1, Q16548 [5], above 2280 nM; with Bcl-2, P10415 [6], 98 nM; in the test with Bcl-xL, Q07817 [7] it was 39 nM; with Mcl-1, Q07820 [8], above 10000 nM.

For LQLHRVLPPDLKSLGDQYVKDEFRRH [ACN9], the SPOT signal as a fraction of Bim BH3's signal on the same receptor and array is 0.14 with Bcl-w, Q92843 [9]; 0.15 with Bfl-1, Q16548 [1]; 0.05 with Bcl-2, P10415 [10]; 0.28 with Bcl-xL, Q07817 [2]; 0.1 with Mcl-1, Q07820 [3].

Consider RVCPYYLSRNLKQQADIIFMPYNYLL [RTEL1], for which the SPOT signal as a fraction of Bim BH3's signal on the same receptor and array is 0.72 in the test with Bfl-1, Q16548 [1]; 2.13 in the test with Bcl-xL, Q07817 [2]; 1.42 in the test with Mcl-1, Q07820 [3]. Besides, the dissociation constant Kd is above 100000 nM with Bcl-w, Q92843 [4]; above 4000 nM with Bfl-1, Q16548 [5]; 342 nM with Bcl-2, P10415 [6]; 1380 nM with Bcl-xL, Q07817 [7]; above 4000 nM with Mcl-1, Q07820 [8].

PAKKMTLSEIYRWICDNFPYYKNAGI [FOXJ2]: the SPOT signal as a fraction of Bim BH3's signal on the same receptor and array worked out at 0.54 in the test with Bfl-1, Q16548 [1]; 2.03 with Bcl-xL, Q07817 [2]; 0.47 in the test with Mcl-1, Q07820 [3]. For the same molecule, the dissociation constant (Kd) was 85 nM with Bcl-w, Q92843 [4]; above 3370 nM with Bfl-1, Q16548 [5]; 130 nM with Bcl-2, P10415 [6]; 103 nM with Bcl-xL, Q07817 [7]; above 10000 nM in the test with Mcl-1, Q07820 [8].
